{
  "source": "paper doi:10.1101/2022.10.11.511767",
  "about": "“A conserved and tunable mechanism for the temperature-controlled condensation of the translation factor Ded1p” (bioRxiv, 2022)",
  "binders": {"B1": {"name": "N-terminal IDR of Sc Ded1p (residues 1-81) (domain or fragment, S. cerevisiae, UniProt P06634 1-81, looked up)", "chain": "MAELSEQVQNLSINDNNENGYVPPHLRGKPRSARNNSSNYNNNNGGYNGGRGGGSFFSNNRRGGYGNGGFFGGNNGGSRSN", "notes": "Ded1p (DEAD-box RNA helicase), S. cerevisiae, N-terminal intrinsically disordered region, residues 1-81; 15N and/or 13C isotope labelled when it was the NMR-visible partner, grown in LB (unlabelled) when NMR invisible; also called N-terminal region; N-IDR; source: E. coli, purified (Ni-NTA, TEV cleavage, second Ni-NTA, size exclusion); not shown: His6, N-terminal, cleaved"}, "B2": {"name": "C-terminal IDR of Sc Ded1p (residues 533-604) (domain or fragment, S. cerevisiae, UniProt P06634 533-604, looked up)", "chain": "MMSAPGSRSNSRRGGFGRNNNRDYRKAGGASAGGWGSSRSRDNSFRGGSGWGSDSKSSGWGNSGGSNNSSWW", "notes": "Ded1p (DEAD-box RNA helicase), S. cerevisiae, C-terminal intrinsically disordered region, residues 533-604; 15N isotope labelled (NMR visible) in the titrations; also called C-IDR; source: E. coli, purified (Ni-NTA, TEV cleavage, second Ni-NTA, size exclusion); not shown: His6, N-terminal, cleaved"}},
  "details_in_all_cases": "both partners purified",
  "key": {"[1]": {"molecular_target": "T1, RecA2 domain of Sc Ded1p (residues 369-535) (S. cerevisiae, UniProt P06634 369-535)", "T1 construct": "Ded1p (DEAD-box RNA helicase), S. cerevisiae, second RecA domain, residues 369-535; 15N and/or 13C isotope labelled when it was the NMR-visible partner, unlabelled when NMR invisible; also called second RecA domain; Rec2 subdomain; source: E. coli, purified (Ni-NTA, TEV cleavage, second Ni-NTA, size exclusion); not shown: His6, N-terminal, cleaved", "T1 sequence (P06634 369-535)": "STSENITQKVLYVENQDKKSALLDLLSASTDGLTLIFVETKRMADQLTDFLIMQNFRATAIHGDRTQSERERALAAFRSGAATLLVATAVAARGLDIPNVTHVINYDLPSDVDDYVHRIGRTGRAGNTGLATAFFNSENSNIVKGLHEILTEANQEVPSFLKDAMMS", "assay": "NMR titration; 1H-15N spectra of the isotope-labelled N-terminal IDR; unlabelled helicase core, RecA1 or RecA2 added; 20 mM HEPES pH 7.3, 125 mM NaCl, 1 mM DTT, 5% D2O"}, "[2]": {"molecular_target": "T2, helicase core region of Sc Ded1p (RecA1-RecA2, residues 82-535) (S. cerevisiae, UniProt P06634 82-535)", "T2 construct": "Ded1p (DEAD-box RNA helicase), S. cerevisiae, helicase core region (RecA1-RecA2), residues 82-535; Used unlabelled (NMR invisible); also called Sc helicase domain (RecA1-RecA2); helicase core domain; source: E. coli, purified (Ni-NTA, TEV cleavage, second Ni-NTA, size exclusion); not shown: His6, N-terminal, cleaved", "T2 sequence (P06634 82-535)": "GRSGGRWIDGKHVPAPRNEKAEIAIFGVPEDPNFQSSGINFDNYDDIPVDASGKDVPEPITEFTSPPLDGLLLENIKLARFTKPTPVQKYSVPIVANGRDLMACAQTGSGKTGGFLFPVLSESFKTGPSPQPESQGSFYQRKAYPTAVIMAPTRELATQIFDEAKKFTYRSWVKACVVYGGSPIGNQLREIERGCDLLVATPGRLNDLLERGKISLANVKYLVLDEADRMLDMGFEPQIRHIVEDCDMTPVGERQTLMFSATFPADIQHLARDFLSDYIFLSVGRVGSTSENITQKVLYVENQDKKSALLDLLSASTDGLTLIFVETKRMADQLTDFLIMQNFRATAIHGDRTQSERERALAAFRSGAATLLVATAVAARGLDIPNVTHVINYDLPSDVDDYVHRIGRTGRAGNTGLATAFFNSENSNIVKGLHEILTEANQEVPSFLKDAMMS", "assay": "NMR titration; 1H-15N spectra of the isotope-labelled N-terminal IDR; unlabelled helicase core, RecA1 or RecA2 added; 20 mM HEPES pH 7.3, 125 mM NaCl, 1 mM DTT, 5% D2O"}, "[3]": {"molecular_target": "T3, RecA1 domain of Sc Ded1p (residues 82-369) (S. cerevisiae, UniProt P06634 82-369)", "T3 construct": "Ded1p (DEAD-box RNA helicase), S. cerevisiae, first RecA domain, residues 82-369; Used unlabelled (NMR invisible); also called first RecA domain; RecA1 subdomain; source: E. coli, purified (Ni-NTA, TEV cleavage, second Ni-NTA, size exclusion); not shown: His6, N-terminal, cleaved", "T3 sequence (P06634 82-369)": "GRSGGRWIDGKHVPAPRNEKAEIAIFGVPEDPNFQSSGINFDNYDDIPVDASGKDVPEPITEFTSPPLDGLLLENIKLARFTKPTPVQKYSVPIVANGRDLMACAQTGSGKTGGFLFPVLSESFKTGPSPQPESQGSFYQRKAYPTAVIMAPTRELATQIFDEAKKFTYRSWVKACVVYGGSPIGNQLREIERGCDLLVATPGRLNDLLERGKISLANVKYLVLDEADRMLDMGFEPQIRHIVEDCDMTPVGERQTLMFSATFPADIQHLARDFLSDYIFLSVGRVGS", "assay": "NMR titration; 1H-15N spectra of the isotope-labelled C-terminal IDR; unlabelled helicase core, RecA1 or RecA2 added; visible condensation in the NMR tube; 20 mM HEPES pH 7.3, 125 mM NaCl, 1 mM DTT, 5% D2O"}, "[4]": {"molecular_target": "T2, helicase core region of Sc Ded1p …", "assay": "NMR titration; 1H-15N spectra of the isotope-labelled C-terminal IDR; unlabelled helicase core, RecA1 or RecA2 added; visible condensation in the NMR tube; 20 mM HEPES pH 7.3, 125 mM NaCl, 1 mM DTT, 5% D2O"}},
  "data": [
    {"binder": "B1", "values": [
      {"measurement": "binding result", "setting": "[1]", "value": "binds"},
      {"measurement": "binding result", "setting": "[2]", "value": "binds"}
    ]},
    {"binder": "B2", "values": [
      {"measurement": "binding result", "setting": "[3]", "value": "binds"},
      {"measurement": "binding result", "setting": "[4]", "value": "binds"}
    ]}
  ]
}
